One substance from paper doi:10.1101/2024.07.11.602925 can be followed below.

This assay deals with His-tagged PTB domain of RABGAP1. Briefly: ITC. For orientation: In ITC the heat of successive injections is recorded.

Usually Kd stands for the equilibrium constant for the complex coming apart. Read a low Kd as a tighter complex. The term stoichiometry N denotes the number of molecules, sites or subunits per partner or assembly.

The substance “WT APP tail peptide, starting from the MQQ sequence at position 677 (from UniProt P05067-4 677-695)” yielded a Kd of 61 µM and a stoichiometry N of 1.
